Source: patent US10596234B2, “Compositions and methods to inhibit viral replication” (priority 2016, dated 2020)

Experiments:
[1] = tested on: cGAS; test: In vitro deamidation assay (cGAS); assay type: biochemical, mouse; settings: purified proteins
Protocol: The in vitro deamidation assay was performed as previously described. Briefly, 5 μg of purified MBP-mcGAS or MBP-mcGAS-DDEE mutant on amylose resin was incubated with 0.5 gig of purified FLAG-UL37 or FLAG-UL37C819S at 30° C. for 45 min in deamidation buffer (50 mM Tris-HCl [pH 7.5], 100 mM NaCl, and 5 mM MgCl2). Then the reaction was stopped by adding rehydration buffer and the eluted proteins were analyzed by two-dimensional gel electrophoresis.

[2] = tested on: cGAS; test: cGAMP reporter assay (THP1-Lucia); assay type: cell-based, human; settings: THP-1 cells transfected with HT-DNA (HT-DNA alone approximately 60 ng)
Protocol: THP-1 Cells were transfected with HT-DNA (2 μg/ml) or infected with HSV-1 virus for 6 h. Cell extracts were prepared by heating at 95° C. for 5 min to denature most proteins, and then the precipitated proteins were removed by centrifugation. The supernatant containing cGAMP was delivered to digitonin-permeabilized (2.5 μg/ml for 30 min) THP1-Lucia cells at 37° C. for 30 min. The cells were cultured for another 20 h before Lucia reporter activity was measured according to the manufacturer's instruction (InvivoGen). Pure cGAMP was diluted and used as standard for the assay.

[3] = tested on: cGAS; test: Real-time PCR in THP-1 cells stably expressing UL37, transfected with HT-DNA; assay type: cell-based, human; settings: THP-1 stable cell lines
Protocol: THP-1 or L929 cells were infected with HSV-1 (MOI=5) or stimulated with HT-DNA (2 μg/ml) or cGAMP (2 μg/ml) for 6 h unless specifically indicated otherwise. Cells were washed with cold PBS, and total RNA was extracted by using TRIzol Reagent (Invitrogen). RNA was digested with DNase I (New England Biolabs) to remove genomic DNA. One microgram of total RNA was used for reverse transcription with PrimeScript Reverse Transcriptase (Clontech) according to the manufacturer's instruction. Approximately 0.5% of the cDNA was used as template in each quantitative real-time PCR (qRT-PCR) reaction with SYBR master mix (Applied biosystems).
Lentivirus production was carried out in 293T cells as described previously. THP-1 or L929 cells were infected with lentivirus containing UL37 or UL37 C819S mutant. After 36 h, THP-1 cells were selected with puromycin at 1 μg/ml and L929 cells were selected with puromycin at 5 μg/ml.

[4] = target: T1, cGAS (Mus musculus, UniProt Q8C6L5); test: In vitro cGAMP activity assay; assay type: biochemical; settings: in vitro cGAMP reaction
T1 construct: Purified mcGAS(141-507) was deamidated by purified FLAG-UL37 in vitro; made in house; host or cells: E. coli BL21 (DE3)
Protocol: 1 μM of MBP-cGAS or mutant proteins was mixed with 100 μM ATP and 100 μM GTP and 10 μCi [α-P32]-ATP in reaction buffer (20 mM Tris-Cl [pH 7.5], 150 mM NaCl, 5 mM MgCl2, 1 mM dithiothreitol [DTT]). After 2 h of incubation at 37° C., 2 μl of reaction solution was spotted onto PEI-Cellulose thin layer chromatography plate (Sigma). Reaction products were resolved with running buffer (1 M (NH4)2SO4, 1.5 M KH2PO4, pH 3.8). The TLC plates were dried and scanned with Phosphoimager (Fuji).

[5] = tested on: PRDIII promoter; test: Dual-luciferase reporter assay (PRDIII, SeV infection); assay type: cell-based, human; settings: 293T cells, SeV 100 HAU/ml
Protocol: HEK293T cells, seeded in 24-well plates (˜50% cell density), were transfected with IFN-β, PRDIII (ISRE) or NF-κB reporter plasmid cocktail (50 ng of luciferase reporter plasmid and 5 ng of pRL Renilla luciferase control vector) and expression plasmid (empty plasmid, one or multiple plasmids depending on the experiment) by calcium phosphate precipitation. Cells were infected with SeV (100 HA/ml), HSV-1 for 16 h, transfected with Poly [I:C] for 16 h or directly harvested 30-36 h post transfection. Whole cell lysates were used to determine the activity of firefly luciferase and renilla luciferase by a microplate reader (FLUOstar Omega).

[6] = tested on: RIG-I; test: Gel filtration of purified RIG-I (oligomerization); assay type: cell-based, human; settings: cells infected with HSV-1, 4 h
Protocol: Virus-infected HEK293T/Flag-RIG-I or HeLa/Flag-RIG-I stable cells were harvested and lysed in cold Triton X-100 buffer (20 mM Tris, pH 7.5, 150 mM NaCl, 1.5 mM MgCl2, 20 mM β-glycerophosphate, 1 mM sodium orthovanadate, 10% glycerol, 0.5 mM EGTA, 0.5% Triton X-100, 1 mM PMSF and 10 μg/ml leupeptin). Centrifuged supernatant was filtered and subjected to incubation with anti-Flag-conjugated agarose beads for 2 h at 4° C. Beads were then extensively washed and proteins were eluted with 3× Flag peptide at 0.2 mg/ml.
Gel filtration with superose 6 was performed as described previously. Briefly, eluted proteins (200-300 μl) were loaded to superose 6 column and subjected to gel filtration analysis with Buffer B (20 mM Tris-HCl, pH 7.6, 150 mM NaCl, 1 mM EDTA, 0.5 mM EGTA, 0.5% Triton X-100, 20 mM NaF, 20 mM β-glycerophosphate, 1 mM Na3VO4, 2.5 mM metabisulphite [sodium salt], 5 mM benzamidine). Elution was collected in 0.5 ml fractions and aliquots of fractions were analyzed by immunoblotting.

[7] = tested on: RIG-I; test: Two-dimensional gel electrophoresis of RIG-I deamidation in cells; assay type: cell-based, human; settings: 2-DGE and immunoblotting
Protocol: Cells (1×10^6) were lysed in 150 μl rehydration buffer (8 M Urea, 2% CHAPS, 0.5% IPG Buffer, 0.002% bromophenol blue) by three pulses of sonication and whole cell lysates were centrifuged at 20,000 g for 15 min. Supernatants were loaded to IEF strips for focusing with a program comprising: 20 V, 10 h (rehydration); 100 V, 1 h; 500 V, 1 h; 1000 V, 1 h; 2000 V, 1 h; 4000 V, 1 h; 8000 V, 4 h. After IEF, strips were incubated with SDS equilibration buffer (50 mM Tris-HCl [pH8.8], 6 M urea, 30% glycerol, 2% SDS, 0.001% Bromophenol Blue) containing 10 mg/ml DTT for 15 min and then SDS equilibration buffer containing 2-iodoacetamide for 15 min. Strips were washed with SDS-PAGE buffer, resolved by SDS-PAGE, and analyzed by immunoblotting.

[8] = tested on: HSV-1; test: HSV-1 plaque assay in HEK293 cells stably expressing RIG-I wild-type or mutants; assay type: cell-based; settings: HEK293 stable cells, HSV-1 MOI=0.5
[9] = tested on: IFN-β and RANTES; test: Cytokine ELISA, HEK293 RIG-I stable cell lines infected with HSV-1; assay type: cell-based, human; settings: HSV-1-infected cells, supernatant at 16 hpi
Protocol: Commercial cytokine ELISA kits used in this study include: human IFN-β (PBL Assay Science) and human RANTES (R&D Systems). Cytokine levels in the supernatant from cultured cells were assessed according to manufacturer's instruction. Absorbance was determined with FLUOstar Omega (BMG Labtech.).

T1 sequence (Q8C6L5 141-507): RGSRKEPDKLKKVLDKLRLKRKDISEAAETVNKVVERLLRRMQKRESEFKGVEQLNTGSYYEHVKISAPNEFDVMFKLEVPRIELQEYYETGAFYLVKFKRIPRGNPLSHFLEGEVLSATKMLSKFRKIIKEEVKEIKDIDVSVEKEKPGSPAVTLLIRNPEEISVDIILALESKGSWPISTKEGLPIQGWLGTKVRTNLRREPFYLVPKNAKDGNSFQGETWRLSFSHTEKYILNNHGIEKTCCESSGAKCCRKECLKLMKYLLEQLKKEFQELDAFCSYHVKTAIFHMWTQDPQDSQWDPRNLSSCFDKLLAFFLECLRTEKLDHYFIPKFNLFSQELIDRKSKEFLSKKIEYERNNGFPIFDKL

| Molecule | cGAS deamidation in vitro (2DGE shift) [1] | intracellular cGAMP [2] | effect on expression of IFNB1, ISG56 and CXCL10 induced by HT-DNA [3] | effect of added UL37 on cGAS-mediated cGAMP production [4] | blockade of SeV-induced PRDIII promoter activation [5] | size of RIG-I elution fractions (oligomerization) [6] | charge shift of RIG-I (deamidation) upon UL37 expression or recombinant HSV-1 infection [7] | reduction of HSV-1 replication / titer [8] | IFN-β and RANTES in supernatant [9] |
| --- | --- | --- | --- | --- | --- | --- | --- | --- | --- |
| UL37C819S | failed to do so | ~85 ng per one million THP-1 cells | no detectable effect on IFNB1 and ISG56 expression | less, albeit still significant, inhibition of cGAMP production | greatly impaired blockade of PRDIII induction by SeV | – | – | – | – |
| RIG-I-QQ (protein) MTTEQRRSLQAFQDYIRKTLDPTYILSYMAPWFREEEVQYIQAEKNNKGPMEAATLFLKFLLELQEEGWFRGFLDALDHAGYSGLYEAIESWDFKKIEKLEEYRLLLKRLQPEFKTRIIPTDIISDLSECLINQECEEILQICSTKGMMAGAEKLVECLLRSDKENWPKTLKLALEKERNKFSELWIVEKGIKDVETEDLEDKMETSDIQIFYQEDPECQNLSENSCPPSEVSDTNLYSPFKPRNYQLELALPAMKGKNTIICAPTGCGKTFVSLLICEHHLKKFPQGQKGKVVFFANQIPVYEQQKSVFSKYFERHGYRVTGISGATAENVPVEQIVENNDIIILTPQILVNNLKKGTIPSLSIFTLMIFDECHNTSKQHPYNMIMFNYLDQKLGGSSGPLPQVIGLTASVGVGDAKNTDEALDYICKLCASLDASVIATVKHNLEELEQVVYKPQKFFRKVESRISDKFKYIIAQLMRDTESLAKRICKDLEQLSQIQNREFGTQKYEQWIVTVQKACMVFQMPDKDEESRICKALFLYTSHLRKYQDALIISEHARMKDALDYLKDFFSNVRAAGFEEIEQDLTQRFEEKLQELESVSRDPSNENPKLEDLCFILQEEYHLNPETITILFVKTRALVDALKNWIEGNPKLSFLKPGILTGRGKTNQNTGMTLPAQKCILDAFKASGDHNILIATSVADEGIDIAQCNLVILYEYVGNVIKMIQTRGRGRARGSKCFLLTSNAGVIEKEQINMYKEKMMNDSILRLQTWDEAVFREKILHIQTHEKFIRDSQEKPKPVPDKENKKLLCRKCKALACYTADVRVIEECHYTVLGDAFKECFVSRPHPKPKQFSSFEKRAKIFCARQNCSHDWGIHVKYKTFEIPVIKIESFVVEDIATGVQTLYSKWKDFHFEKIPFDPAEMSK | – | – | – | – | – | 440-670 kDa | deamidation-resistant | 75-90% | Increased IFN-β and RANTES expression |
